# Assay results from paper PMC11286949, “Structural basis of tRNA recognition by the widespread OB fold”.
# B1: tRNAIle WT (structured_RNA)
# RNA: AGGCUUGUAGCUCAGGUGGUUAGAGCGCACCCCUGAUAAGGGUGAGGUCGGUGGUUCAAGUCCACUCAGGCCUACCA
# Legend:
# Test in all cases: ITC; ITC (Arc1p): 25 mM Tris-HCl pH 7.4, 150 mM NaCl, 2 mM MgCl2, 25 °C. FP and competition FP: 25 mM Tris-HCl pH 7.5, 150 mM NaCl (Arc1p) or 50 mM NaCl (Trbp111), 2 mM MgCl2, room temperature
# Details in all cases: protein: recombinant; tags: His-MBP removed; tRNA fold
# Arc1p dN M281A = target: T1, Arc1p dN M281A (Saccharomyces cerevisiae, UniProt P46672 132-376, M281A;del1-131)
# T1 sequence: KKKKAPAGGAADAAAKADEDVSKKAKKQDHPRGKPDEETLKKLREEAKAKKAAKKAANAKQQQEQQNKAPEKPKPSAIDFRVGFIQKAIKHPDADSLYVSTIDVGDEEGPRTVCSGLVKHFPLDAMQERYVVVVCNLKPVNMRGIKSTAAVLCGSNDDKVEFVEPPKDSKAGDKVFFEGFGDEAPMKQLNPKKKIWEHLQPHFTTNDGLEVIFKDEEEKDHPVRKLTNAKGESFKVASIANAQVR
# Arc1p = target: T2, Arc1p (Saccharomyces cerevisiae, UniProt P46672 1-376)
# T2 sequence: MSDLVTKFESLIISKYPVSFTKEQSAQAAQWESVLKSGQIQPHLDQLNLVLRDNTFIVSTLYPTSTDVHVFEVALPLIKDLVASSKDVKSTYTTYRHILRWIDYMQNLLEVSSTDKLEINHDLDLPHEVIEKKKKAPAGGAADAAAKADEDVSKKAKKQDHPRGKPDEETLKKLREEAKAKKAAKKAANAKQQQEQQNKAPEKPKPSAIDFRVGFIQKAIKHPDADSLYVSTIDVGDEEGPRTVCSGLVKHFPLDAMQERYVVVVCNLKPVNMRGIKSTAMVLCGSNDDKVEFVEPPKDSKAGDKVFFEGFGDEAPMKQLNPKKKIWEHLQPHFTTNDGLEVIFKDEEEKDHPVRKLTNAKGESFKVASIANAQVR
# Arc1p dN S278A = target: T3, Arc1p dN S278A (Saccharomyces cerevisiae, UniProt P46672 132-376, S278A;del1-131)
# T3 sequence: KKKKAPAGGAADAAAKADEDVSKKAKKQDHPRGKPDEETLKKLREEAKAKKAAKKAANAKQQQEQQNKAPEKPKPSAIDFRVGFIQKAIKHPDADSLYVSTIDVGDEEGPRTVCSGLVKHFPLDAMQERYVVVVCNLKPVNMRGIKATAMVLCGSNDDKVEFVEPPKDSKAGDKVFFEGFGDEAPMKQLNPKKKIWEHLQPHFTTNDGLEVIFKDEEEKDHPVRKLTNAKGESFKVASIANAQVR
# Arc1p dN = target: T4, Arc1p dN (Saccharomyces cerevisiae, UniProt P46672 132-376, del1-131)
# T4 sequence: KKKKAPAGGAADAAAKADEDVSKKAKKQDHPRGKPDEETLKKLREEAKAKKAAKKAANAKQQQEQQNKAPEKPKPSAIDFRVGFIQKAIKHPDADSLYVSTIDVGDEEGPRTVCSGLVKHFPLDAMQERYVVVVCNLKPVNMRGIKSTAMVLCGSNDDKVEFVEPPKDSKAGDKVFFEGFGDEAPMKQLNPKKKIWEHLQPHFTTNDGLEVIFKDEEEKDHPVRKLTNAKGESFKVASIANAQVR
# Arc1p dNdM1 = target: T5, Arc1p dNdM1 (Saccharomyces cerevisiae, UniProt P46672 166-376)
# T5 sequence: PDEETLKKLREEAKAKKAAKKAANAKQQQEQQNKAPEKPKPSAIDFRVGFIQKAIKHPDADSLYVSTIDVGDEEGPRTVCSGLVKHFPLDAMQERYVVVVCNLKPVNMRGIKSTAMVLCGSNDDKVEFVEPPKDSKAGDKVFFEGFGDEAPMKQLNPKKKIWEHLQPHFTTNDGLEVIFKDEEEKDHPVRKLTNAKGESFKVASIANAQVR
binder,measurement,setting,value
B1,Kd,Arc1p dN M281A,384 ± 48 nM
same,Kd,Arc1p,1280 ± 130 nM
same,Kd,Arc1p dN S278A,845 ± 149 nM
same,Kd,Arc1p dN,321 ± 101 nM
same,Kd,Arc1p dNdM1,2550 ± 456 nM
